Measured values: US20130108641A1

Assays:
[1] = target: human GITR expressed on cells (human) (UniProt Q9Y5U5); test: cell-based or functional assay
[2] = target: human GITR expressed on cells (human) (UniProt Q9Y5U5); test: FACS, Alexa488-labeled antibody on PHA-stimulated human PBMCs
[3] = target: human GITR-Fc fusion protein (human) (UniProt Q9Y5U5); test: competition ELISA, GITRL coated, GITR-Fc 0.25 µg/mL pre-incubated with antibody
Sequence of human GITR-Fc fusion protein (human) (Q9Y5U5 26-162): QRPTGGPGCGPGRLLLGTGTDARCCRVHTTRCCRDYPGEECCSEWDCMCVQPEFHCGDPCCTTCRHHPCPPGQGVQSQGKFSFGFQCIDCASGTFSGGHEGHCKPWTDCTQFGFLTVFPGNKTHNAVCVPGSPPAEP

Sequence of human GITR expressed on cells (human) (Q9Y5U5 26-241): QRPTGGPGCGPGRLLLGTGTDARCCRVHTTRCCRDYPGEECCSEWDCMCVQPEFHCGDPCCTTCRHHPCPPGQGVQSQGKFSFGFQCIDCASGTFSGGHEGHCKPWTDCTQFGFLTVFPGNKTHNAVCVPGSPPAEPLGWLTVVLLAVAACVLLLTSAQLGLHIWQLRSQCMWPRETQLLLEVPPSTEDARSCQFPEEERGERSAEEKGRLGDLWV

- inhibition of NFkB signal transduction (luciferase reporter) at 300 ng/ml [1]: 18%
- Kd [2]: 1.66 nM
- IC50 [3]: 13.9 nM
Substance: MAB689 (R&D Systems), commercial anti-GITR antibody
